Measurements reported in US20260250352A1.
Where two headings read alike, the source gives them in different places.

How the values were obtained:
[1] = molecular target: APRIL + BAFF in combination (human); assay: cell-based or functional assay
[2] = molecular target: recombinant human APRIL (human) (UniProt O75888); assay: cell-based or functional assay
[3] = molecular target: recombinant human BAFF (human) (UniProt Q9Y275); assay: cell-based or functional assay
[4] = molecular target: recombinant human BAFF (human) (UniProt Q9Y275)
BAFF 60-mer (human) = BAFF 60-mer (human) (UniProt Q9Y275); assay: cell-based or functional assay
[5] = molecular target: recombinant human APRIL (human) (UniProt O75888); assay: cell-based or functional assay; remark: listed apart in the source
[6] = molecular target: recombinant human BAFF (human) (UniProt Q9Y275); assay: cell-based or functional assay; remark: listed apart in the source
[7] = molecular target: recombinant mouse APRIL (mouse) (UniProt Q9D777); assay: cell-based or functional assay
Chain of recombinant mouse APRIL (mouse) (Q9D777 96-241 limits assumed): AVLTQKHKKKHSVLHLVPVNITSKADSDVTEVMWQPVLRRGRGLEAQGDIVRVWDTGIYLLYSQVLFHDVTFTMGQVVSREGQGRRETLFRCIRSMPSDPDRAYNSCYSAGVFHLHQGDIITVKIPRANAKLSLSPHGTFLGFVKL

[8] = molecular target: recombinant mouse BAFF (mouse) (UniProt Q9WU72); assay: cell-based or functional assay
Chain of recombinant mouse BAFF (mouse) (Q9WU72 127-309 limits assumed): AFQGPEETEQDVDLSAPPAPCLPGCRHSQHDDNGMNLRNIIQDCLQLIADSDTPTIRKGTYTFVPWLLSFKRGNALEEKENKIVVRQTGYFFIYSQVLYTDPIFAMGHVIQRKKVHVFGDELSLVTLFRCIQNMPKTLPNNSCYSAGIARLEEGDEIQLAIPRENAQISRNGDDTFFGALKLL

[9] = molecular target: recombinant human APRIL (human) (UniProt O75888)
[10] = molecular target: recombinant human BAFF (human) (UniProt Q9Y275); remark: listed apart in the source
[11] = molecular target: recombinant human BAFF (human) (UniProt Q9Y275); remark: listed apart in the source
[12] = molecular target: recombinant mouse APRIL (mouse) (UniProt Q9D777)
[13] = molecular target: recombinant mouse BAFF (mouse) (UniProt Q9WU72)
[14] = molecular target: single chain APRIL-BAFF-BAFF heterotrimer (ABB) (human) (UniProt O75888); assay: cell-based or functional assay
[15] = molecular target: single chain BAFF homotrimer (BAFF-BAFF-BAFF) (human) (UniProt Q9Y275); assay: cell-based or functional assay
[16] = molecular target: single chain BAFF-APRIL-APRIL heterotrimer (BAA) (human) (UniProt Q9Y275); assay: cell-based or functional assay

Chain of TACI WT 13 (G4S)4 (84) TACI WT 13 GSG4S (74) Fc 73 (Fc fusion) (chain): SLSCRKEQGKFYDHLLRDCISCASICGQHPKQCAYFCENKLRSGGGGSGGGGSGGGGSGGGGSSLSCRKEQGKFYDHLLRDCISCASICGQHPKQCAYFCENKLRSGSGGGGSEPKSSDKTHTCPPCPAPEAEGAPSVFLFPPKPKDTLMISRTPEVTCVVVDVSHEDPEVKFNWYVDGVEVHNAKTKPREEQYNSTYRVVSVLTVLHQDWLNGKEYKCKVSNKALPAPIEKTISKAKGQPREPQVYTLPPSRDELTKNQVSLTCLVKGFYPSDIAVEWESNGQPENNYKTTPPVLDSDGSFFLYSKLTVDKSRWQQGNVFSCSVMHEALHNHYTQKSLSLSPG
Chain of Atacicept (WT TACI-Fc with the atacicept sequence) (Fc fusion) (chain): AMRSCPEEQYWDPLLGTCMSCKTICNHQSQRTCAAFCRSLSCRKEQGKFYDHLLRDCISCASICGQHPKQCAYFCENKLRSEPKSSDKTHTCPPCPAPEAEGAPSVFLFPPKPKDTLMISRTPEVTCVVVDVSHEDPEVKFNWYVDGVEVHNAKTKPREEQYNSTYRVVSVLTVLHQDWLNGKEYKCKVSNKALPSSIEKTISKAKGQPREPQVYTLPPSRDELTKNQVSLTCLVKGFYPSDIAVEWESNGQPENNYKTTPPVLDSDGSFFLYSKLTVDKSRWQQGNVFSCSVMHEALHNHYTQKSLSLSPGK
Chain of 27 TACI CRD2-Fc (Fc fusion) (chain): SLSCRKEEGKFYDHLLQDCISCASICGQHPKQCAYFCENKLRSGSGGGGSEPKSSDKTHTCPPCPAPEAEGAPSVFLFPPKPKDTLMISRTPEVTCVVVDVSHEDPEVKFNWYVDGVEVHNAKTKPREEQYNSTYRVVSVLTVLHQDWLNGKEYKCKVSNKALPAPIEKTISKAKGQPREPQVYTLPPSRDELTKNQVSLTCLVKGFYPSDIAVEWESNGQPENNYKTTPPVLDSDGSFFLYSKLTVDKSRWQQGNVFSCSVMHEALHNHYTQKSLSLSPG
Chain of 13 TACI CRD2-Fc (Fc fusion) (chain): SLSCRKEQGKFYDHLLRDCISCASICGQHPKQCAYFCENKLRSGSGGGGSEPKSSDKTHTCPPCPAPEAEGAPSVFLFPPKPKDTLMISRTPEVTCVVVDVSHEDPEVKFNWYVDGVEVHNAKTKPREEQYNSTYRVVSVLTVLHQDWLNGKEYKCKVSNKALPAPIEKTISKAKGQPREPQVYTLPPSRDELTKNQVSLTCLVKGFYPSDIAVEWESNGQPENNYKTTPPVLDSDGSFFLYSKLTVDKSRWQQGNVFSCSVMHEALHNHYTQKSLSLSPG
Chain of TACI WT 13 GSG4S (74) Fc 73 (G4S)4 (84) TACI WT 13 (Fc fusion) (chain): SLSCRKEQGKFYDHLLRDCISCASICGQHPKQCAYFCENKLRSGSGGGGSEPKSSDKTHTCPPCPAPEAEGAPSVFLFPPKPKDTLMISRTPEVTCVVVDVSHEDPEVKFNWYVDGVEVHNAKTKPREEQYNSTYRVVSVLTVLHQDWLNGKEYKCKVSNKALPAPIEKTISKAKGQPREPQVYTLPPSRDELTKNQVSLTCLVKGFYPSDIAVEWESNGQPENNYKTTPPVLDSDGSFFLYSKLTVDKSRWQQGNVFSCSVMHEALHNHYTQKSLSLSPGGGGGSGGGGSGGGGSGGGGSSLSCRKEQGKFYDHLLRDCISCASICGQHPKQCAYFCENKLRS
Chain of 29 TACI CRD2-Fc (Fc fusion) (chain): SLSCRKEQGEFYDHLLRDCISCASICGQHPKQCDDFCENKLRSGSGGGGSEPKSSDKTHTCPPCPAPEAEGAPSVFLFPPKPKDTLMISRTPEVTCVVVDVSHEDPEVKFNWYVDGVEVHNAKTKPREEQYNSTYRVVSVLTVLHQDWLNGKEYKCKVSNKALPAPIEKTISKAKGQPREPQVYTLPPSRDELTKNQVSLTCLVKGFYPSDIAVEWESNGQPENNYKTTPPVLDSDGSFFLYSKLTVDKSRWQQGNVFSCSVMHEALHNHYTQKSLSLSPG
Chain of TACI 13-118-Fc (Fc fusion) (chain): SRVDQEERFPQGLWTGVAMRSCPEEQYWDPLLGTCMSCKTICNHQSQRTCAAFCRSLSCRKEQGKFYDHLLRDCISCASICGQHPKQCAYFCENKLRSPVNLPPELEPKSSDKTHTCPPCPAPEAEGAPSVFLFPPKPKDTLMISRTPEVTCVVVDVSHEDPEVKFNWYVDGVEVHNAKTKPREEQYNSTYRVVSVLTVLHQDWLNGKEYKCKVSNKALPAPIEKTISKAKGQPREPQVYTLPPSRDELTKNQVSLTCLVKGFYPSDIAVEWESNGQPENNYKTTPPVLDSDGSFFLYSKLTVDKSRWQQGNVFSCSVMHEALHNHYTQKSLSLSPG
Chain of TACI 30-110-Fc (Fc fusion) (chain): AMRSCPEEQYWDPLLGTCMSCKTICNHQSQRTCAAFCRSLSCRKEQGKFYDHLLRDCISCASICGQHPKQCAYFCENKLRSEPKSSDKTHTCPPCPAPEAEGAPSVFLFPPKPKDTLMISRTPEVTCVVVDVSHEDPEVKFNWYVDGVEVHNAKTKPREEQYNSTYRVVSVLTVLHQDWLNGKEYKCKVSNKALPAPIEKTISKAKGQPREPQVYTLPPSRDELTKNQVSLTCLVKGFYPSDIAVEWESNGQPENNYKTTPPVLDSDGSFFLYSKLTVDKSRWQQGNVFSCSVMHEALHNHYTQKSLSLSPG
Chain of WT TACI 13-118-Fc based on the published telitacicept sequence (Fc fusion) (chain): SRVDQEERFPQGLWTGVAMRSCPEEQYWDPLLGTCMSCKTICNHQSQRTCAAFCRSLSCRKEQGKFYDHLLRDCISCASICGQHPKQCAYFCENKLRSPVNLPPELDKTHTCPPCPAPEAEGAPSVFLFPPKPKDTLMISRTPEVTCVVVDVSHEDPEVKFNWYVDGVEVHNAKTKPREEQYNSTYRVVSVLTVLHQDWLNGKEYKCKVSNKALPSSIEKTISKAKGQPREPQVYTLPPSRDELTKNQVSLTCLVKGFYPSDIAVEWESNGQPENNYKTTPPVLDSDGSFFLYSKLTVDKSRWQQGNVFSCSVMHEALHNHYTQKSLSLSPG

IC50, Jurkat/NF-kB/TACI reporter [2]	IC50 relative to WT TACI (68-110)-Fc (Δ WT) [2]	IC50, Jurkat/NF-kB/TACI reporter [3]	IC50 relative to WT TACI (68-110)-Fc (Δ WT) [3]	Substance	also measured
10.7 nM	0.87	1.89 nM	1.02	178 TACI CRD2-Fc (Q75E, K77E) (Fc fusion)	
2.62 nM	0.21	2.26 nM	1.22	184 TACI CRD2-Fc (F78Y, R84Q) (Fc fusion)	
33.6 nM	2.72	1.95 nM	1.05	189 TACI CRD2-Fc (A101D, Y102D) (Fc fusion)	
2.04 nM	0.17	1.96 nM	1.06	25 TACI CRD2-Fc (K77E, A101D) (Fc fusion)	
13.2 nM	1.07	1.99 nM	1.07	TACI 13-118, with K77E/F78Y/Y102D, Fc fusion	IC50, Jurkat/NF-kB/TACI reporter [5]: 848 nM; IC50 relative to TACI 30-110 [5]: 0.2; IC50, Jurkat/NF-kB/TACI reporter [6]: 2050 nM; IC50 relative to TACI 30-110 [6]: 0.46
13.4 nM	1.09	1.79 nM	0.97	179 TACI CRD2-Fc (Q75E, F78Y) (Fc fusion)	
8.49 nM	0.69	1.96 nM	1.06	186 TACI CRD2-Fc (F78Y, Y102D) (Fc fusion)	
12.3 nM	1	1.86 nM	1.01	188 TACI CRD2-Fc (R84Q, Y102D) (Fc fusion)	
10.1 nM	0.82	2.21 nM	1.19	182 TACI CRD2-Fc (K77E, F78Y, R84Q) (Fc fusion)	

Second part, the substance before the results:

Substance	IC50, Jurkat/NF-kB/TACI reporter [2]	IC50 relative to WT TACI (68-110)-Fc (Δ WT) [2]	IC50, Jurkat/NF-kB/TACI reporter [3]	IC50 relative to WT TACI (68-110)-Fc (Δ WT) [3]	also measured
WT TACI 13-118-Fc based on the published telitacicept sequence (Fc fusion)					IC50, TACI/Jurkat/NF-kB reporter [1]: > 200 nM
185 TACI CRD2-Fc (F78Y, A101D) (Fc fusion)	2.02 nM	0.16	1.85 nM	1	
TACI 30-110-Fc (Fc fusion)					IC50 (read off the curve), human BAFF, NF-κB luciferase reporter, TACI/Jurkat/NF-κB cells [4]: 20 nM; IC50, TACI/Jurkat/NF-kB reporter (BAFF 60-mer (human)): > 100 nM; IC50, Jurkat/NF-kB/TACI reporter [5]: 4320 nM; IC50 relative to TACI 30-110 [5]: 1; IC50 relative to TACI 30-110-Fc [5]: 1; IC50, Jurkat/NF-kB/TACI reporter [6]: 4490 nM; IC50 relative to TACI 30-110 [6]: 1; IC50 relative to TACI 30-110-Fc [6]: 1
TACI 13-118-Fc (Fc fusion)			7.91 nM	4.26	IC50 (read off the curve), human BAFF, NF-κB luciferase reporter, TACI/Jurkat/NF-κB cells [4]: 20 nM; IC50, Jurkat/NF-kB/TACI reporter [5]: 7810 nM; IC50 relative to TACI 30-110 [5]: 1.81; IC50 relative to TACI 30-110-Fc [5]: 2.37; IC50, Jurkat/NF-kB/TACI reporter [6]: 7700 nM; IC50 relative to TACI 30-110 [6]: 1.88; IC50 relative to TACI 30-110-Fc [6]: 1.33
190 TACI CRD2-Fc (Y102D) (Fc fusion)	11.6 nM	0.94	1.86 nM	1	
32 TACI CRD2-Fc (K77E) (Fc fusion)	0.159 nM	0.01	1.54 nM	0.83	
TACI WT 13 GSG4S (74) Fc 73 (G4S)4 (84) TACI WT 13 (Fc fusion)					IC50, Jurkat/NF-kB/TACI reporter (BAFF 60-mer (human)): 2.58 nM; IC50, Jurkat/NF-kB/TACI reporter [5]: 11.9 nM; IC50, Jurkat/NF-kB/TACI reporter [6]: 1.04 nM
Atacicept (WT TACI-Fc with the atacicept sequence) (Fc fusion)			7.74 nM	4.17	IC50, Jurkat/NF-kB/TACI reporter [1]: 7.72 nM; IC50, TACI/Jurkat/NF-kB reporter [1]: > 200 nM; IC50, Jurkat/NF-kB/TACI reporter [5]: 9.26 nM; IC50, TACI/Jurkat/NF-kB reporter [5]: > 200 nM; IC50, Jurkat/NF-kB/TACI reporter [6]: 8.29 nM; IC50, TACI/Jurkat/NF-kB reporter [6]: 20.8 nM; IC50, TACI/Jurkat/NF-kB reporter [7]: 18 nM; IC50, TACI/Jurkat/NF-kB reporter [8]: 9 nM
180 TACI CRD2-Fc (Q75E, A101D) (Fc fusion)	20 nM	1.62	2.36 nM	1.27	
27 TACI CRD2-Fc (Fc fusion)	11.8 nM	0.96	1.46 nM	0.79	IC50, Jurkat/NF-kB/TACI reporter [5]: 262 nM; IC50 relative to TACI 30-110-Fc [5]: 0.07; IC50, Jurkat/NF-kB/TACI reporter [6]: 1390 nM; IC50 relative to TACI 30-110-Fc [6]: 0.24
192 TACI CRD2-Fc (K77E, Y102D) (Fc fusion)	0.891 nM	0.07	2.18 nM	1.17	
24 TACI CRD2-Fc (K77E, R84Q) (Fc fusion)	4.26 nM	0.35	2.26 nM	1.22	
BAFF-R ECD (receptor)			53.2 nM	28.7	
187 TACI CRD2-Fc (R84Q, A101D) (Fc fusion)	11.2 nM	0.91	2.35 nM	1.27	
191 TACI CRD2-Fc (K77E, F78Y) (Fc fusion)	10.1 nM	0.82	1.97 nM	1.06	
183 TACI CRD2-Fc (F78Y) (Fc fusion)	0.176 nM	0.01	1.64 nM	0.88	
181 TACI CRD2-Fc (Q75E, Y102D) (Fc fusion)	11.1 nM	0.9	2.15 nM	1.16	
177 TACI CRD2-Fc (Q75E) (Fc fusion)	1.94 nM	0.16	1.46 nM	0.79	
29 TACI CRD2-Fc (Fc fusion)	2.91 nM	0.24	1.18 nM	0.64	IC50, Jurkat/NF-kB/TACI reporter [5]: 339 nM; IC50 relative to TACI 30-110-Fc [5]: 0.09; IC50 relative to TACI 30-110-Fc [6]: 0.23
23 TACI CRD2-Fc (A101D) (Fc fusion)	8.38 nM	0.68	1.83 nM	0.99	
13 TACI CRD2-Fc (Fc fusion)	12.3 nM	1	1.85 nM	1	IC50 (read off the curve), human APRIL, NF-κB luciferase reporter, Jurkat/TACI/NF-κB cells [9]: 5 nM; IC50 (read off the curve), human BAFF, NF-κB luciferase reporter, Jurkat/TACI/NF-κB cells [10]: 2 nM; IC50 (read off the curve), human BAFF, NF-κB luciferase reporter, Jurkat/NF-κB/TACI cells [11]: 4 nM; IC50 (read off the curve), mouse APRIL, NF-κB luciferase reporter, Jurkat/NF-κB/TACI cells [12]: 0.7 nM; IC50 (read off the curve), mouse BAFF, NF-κB luciferase reporter, Jurkat/NF-κB/TACI cells [13]: 5 nM; IC50 (read off the curve), human BAFF, NF-κB luciferase reporter, TACI/Jurkat/NF-κB cells [4]: 3 nM; IC50, TACI/Jurkat/NF-kB reporter [1]: 12.9 nM; IC50, TACI/Jurkat/NF-kB reporter (BAFF 60-mer (human)): 18.7 nM; IC50, Jurkat/NF-kB/TACI reporter [5]: 369 nM; IC50, TACI/Jurkat/NF-kB reporter [5]: 8.5 nM; IC50 relative to TACI 30-110-Fc [5]: 0.1; IC50, Jurkat/NF-kB/TACI reporter [6]: 1330 nM; IC50, TACI/Jurkat/NF-kB reporter [6]: 3 nM; IC50 relative to TACI 30-110-Fc [6]: 0.23; IC50, TACI/Jurkat/NF-kB reporter [7]: 2.9 nM; IC50, TACI/Jurkat/NF-kB reporter [8]: 2.2 nM; IC50, TACI/Jurkat/NF-kB reporter [14]: 0.179 nM; IC50, TACI/Jurkat/NF-kB reporter [15]: 7.46 nM; IC50, TACI/Jurkat/NF-kB reporter [16]: < 0.016 nM
TACI WT 13 (G4S)4 (84) TACI WT 13 GSG4S (74) Fc 73 (Fc fusion)					IC50, Jurkat/NF-kB/TACI reporter (BAFF 60-mer (human)): 4.33 nM; IC50, Jurkat/NF-kB/TACI reporter [5]: 34.6 nM; IC50, Jurkat/NF-kB/TACI reporter [6]: 3.29 nM
30 TACI CRD2-Fc (R84Q) (Fc fusion)	0.566 nM	0.05	5.49 nM	2.96	IC50 (read off the curve), human BAFF, NF-κB luciferase reporter, Jurkat/TACI/NF-κB cells [10]: 1 nM
